Experimental data reported in US20250312499A1, “KISSPEPTIN RECEPTOR (KISS1R) TARGETED THERAPEUTICS AND USES THEREOF” (priority 2024, published 2025).
Numbered stars: 1 amine (or outer) side, 2 acyl side, 3 side chain; on linkers, the order of the positions; unused ones are H or OH. Square brackets hold non-standard residues; d marks the D form. Primed or numbered codes have the meaning given here. Side chains are listed from the residue outwards. Ends that are not written are not given here. * marks the point of attachment. X2 = 4‑amino‑1‑((3-fluoro-4-methylbenzyl)glycyl)piperidine‑4‑carboxylic acid, Cc1ccc(CN(CC(=O)N2CCC(N[*:1])(C(=O)[*:2])CC2)[*:3])cc1F; DOTA = O=C(O)CN1CCN(CC(=O)O)CCN(CC(=O)*)CCN(CC(=O)O)CC1; Piperidine‑2‑carboxylic_acid(MeGly) = not defined here; Ala(9-anthryl) = N[C@@H](Cc1c2ccccc2cc2ccccc12)C(=O)O; Butanoyl(4-(4-I-phenyl)) = O=C(CCCc1ccc(I)cc1)*; Bpa = N[C@@H](Cc1ccc(C(=O)c2ccccc2)cc1)C(=O)O; Api(1-amidino) = N=C(N)N1CCC(N)(C(=O)O)CC1; Bip = N[C@@H](Cc1ccc(-c2ccccc2)cc1)C(=O)O; γGlu = O=C(O)[C@H](CCC(=O)[*:2])N[*:1]; d2Nal = N[C@H](Cc1ccc2ccccc2c1)C(=O)O; εLys = N[C@@H](CCCCN[*:1])C(=O)[*:2]; Adipoyl = O=C(CCCCC(=O)[*:2])[*:1]; Palmitoyl = CCCCCCCCCCCCCCCC(=O)*; Hyp = O=C(O)[C@@H]1C[C@@H](O)CN1; 4Pal = N[C@@H](Cc1ccncc1)C(=O)O; d4Pal = N[C@H](Cc1ccncc1)C(=O)O; Cha = N[C@@H](CC1CCCCC1)C(=O)O; 4Amb = NCc1ccc(C(=O)O)cc1; Pip = O=C(O)[C@@H]1CCCCN1; PEG4′ = not defined here; dCsA = not defined here; Ahx = NCCCCCC(=O)O; azaGly = NNC(=O)O

Experiments:
[1] = target: human kisspeptin receptor (KISS1R) (human), Q969F8; assay: radioligand competition, hKISS1R membranes; legend: A is <10 nM
[2] = target: human kisspeptin receptor (KISS1R) (human) (UniProt Q969F8); assay: as above
Sequence of human kisspeptin receptor (KISS1R) (human) (Q969F8 whole entry): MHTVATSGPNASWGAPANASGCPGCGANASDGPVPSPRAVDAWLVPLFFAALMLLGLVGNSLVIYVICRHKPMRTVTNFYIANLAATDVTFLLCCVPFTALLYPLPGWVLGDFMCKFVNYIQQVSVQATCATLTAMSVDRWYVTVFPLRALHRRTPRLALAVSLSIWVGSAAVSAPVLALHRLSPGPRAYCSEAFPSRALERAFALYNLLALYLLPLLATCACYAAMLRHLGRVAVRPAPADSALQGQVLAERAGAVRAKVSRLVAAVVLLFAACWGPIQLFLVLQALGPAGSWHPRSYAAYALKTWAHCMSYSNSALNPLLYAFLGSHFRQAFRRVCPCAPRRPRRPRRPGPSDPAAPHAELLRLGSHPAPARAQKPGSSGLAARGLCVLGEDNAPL

Sequence of human kisspeptin receptor (KISS1R) (human), Q969F8 (Q969F8 whole entry): as above

Binder | Ki [1] [nM] | Ki [2] [nM]
{DOTA-dCsA-Ahx}-[dY][dW]NTF[azaGly]L[X2]W-NH2 (not fully specified; reading uncertain) [Compound 115] | < 10 | 
Palmitoyl-[γGlu]K([PEG4′-DOTA])[dY][dW]NTF[azaGly]L[X2]W-NH2 [Compound 119] | < 10 | 
{DOTA}-[Ahx][dY][Ala(9-anthryl)]NTF[azaGly]L[Api(1-amidino)]W-NH2 (SMILES CC(C)C[C@H](NC(=O)NNC(=O)[C@H](Cc1ccccc1)NC(=O)[C@@H](NC(=O)[C@H](CC(N)=O)NC(=O)[C@H](Cc1c2ccccc2cc2ccccc12)NC(=O)[C@@H](Cc1ccc(O)cc1)NC(=O)CCCCCNC(=O)CN1CCN(CC(=O)O)CCN(CC(=O)O)CCN(CC(=O)O)CC1)[C@@H](C)O)C(=O)NC1(C(=O)N[C@@H](Cc2c[nH]c3ccccc23)C(N)=O)CCN(C(=N)N)CC1) [Compound 184] |  | < 10
{DOTA-Met-Val-εLys-Adipoyl}-[dY][dW]NTF[azaGly]L[X2]W-NH2 [Compound 133] | < 10 | 
{DOTA-Ahx}-[d2Nal]NTF[azaGly]L[Api(1-amidino)]F-NH2 (SMILES CC(C)C[C@H](NC(=O)NNC(=O)[C@H](Cc1ccccc1)NC(=O)[C@@H](NC(=O)[C@H](CC(N)=O)NC(=O)[C@@H](Cc1ccc2ccccc2c1)NC(=O)CCCCCNC(=O)CN1CCN(CC(=O)O)CCN(CC(=O)O)CCN(CC(=O)O)CC1)[C@@H](C)O)C(=O)NC1(C(=O)N[C@@H](Cc2ccccc2)C(N)=O)CCN(C(=N)N)CC1) [Compound 301] |  | < 10
{DOTA-Ahx}-[dY][Hyp]NTF[azaGly]L[Api(1-amidino)]W-NH2 (SMILES CC(C)C[C@H](NC(=O)NNC(=O)[C@H](Cc1ccccc1)NC(=O)[C@@H](NC(=O)[C@H](CC(N)=O)NC(=O)[C@@H]1C[C@@H](O)CN1C(=O)[C@@H](Cc1ccc(O)cc1)NC(=O)CCCCCNC(=O)CN1CCN(CC(=O)O)CCN(CC(=O)O)CCN(CC(=O)O)CC1)[C@@H](C)O)C(=O)NC1(C(=O)N[C@@H](Cc2c[nH]c3ccccc23)C(N)=O)CCN(C(=N)N)CC1) [Compound 311] |  | < 10
{DOTA-Ahx}-[dK](Butanoyl(4-(4-I-phenyl)))[Ahx][dY][d2Nal]NTF[azaGly]L[Api(1-amidino)]W-NH2 (SMILES CC(C)C[C@H](NC(=O)NNC(=O)[C@H](Cc1ccccc1)NC(=O)[C@@H](NC(=O)[C@H](CC(N)=O)NC(=O)[C@@H](Cc1ccc2ccccc2c1)NC(=O)[C@@H](Cc1ccc(O)cc1)NC(=O)CCCCCNC(=O)[C@@H](CCCCNC(=O)CCCc1ccc(I)cc1)NC(=O)CCCCCNC(=O)CN1CCN(CC(=O)O)CCN(CC(=O)O)CCN(CC(=O)O)CC1)[C@@H](C)O)C(=O)NC1(C(=O)N[C@@H](Cc2c[nH]c3ccccc23)C(N)=O)CCN(C(=N)N)CC1) [Compound 337] |  | < 10
{DOTA-Ahx}-[dY][3‑(9-anthryl)alanine]NTF[azaGly]L[Api(1-amidino)][4Pal]-NH2 [Compound 222] |  | < 10
{DOTA-Ahx}-[dY][d2Nal]NT[Cha][azaGly]L[Api(1-amidino)]W-NH2 (SMILES CC(C)C[C@H](NC(=O)NNC(=O)[C@H](CC1CCCCC1)NC(=O)[C@@H](NC(=O)[C@H](CC(N)=O)NC(=O)[C@@H](Cc1ccc2ccccc2c1)NC(=O)[C@@H](Cc1ccc(O)cc1)NC(=O)CCCCCNC(=O)CN1CCN(CC(=O)O)CCN(CC(=O)O)CCN(CC(=O)O)CC1)[C@@H](C)O)C(=O)NC1(C(=O)N[C@@H](Cc2c[nH]c3ccccc23)C(N)=O)CCN(C(=N)N)CC1) [Compound 317] |  | < 10
{DOTA}-[Ahx][dY][d2Nal]NTF[azaGly]L[Piperidine‑2‑carboxylic_acid(MeGly)]W-NH2 (not fully specified; reading uncertain) [Compound 201] |  | < 10
{DOTA-Ahx}-[dK](4‑(p-tolyl)butanoyl)[dY][d2Nal]NTF[azaGly]L[Api(1-amidino)]F-NH2 [Compound 309] |  | < 10
{DOTA-Ahx}-[dY][d4Pal]NTF[azaGly]L[Apc(OMe)][4Pal]-NH2 [Compound 299] |  | < 10
{DOTA-Ahx}-[dK](Butanoyl(4-(4-I-phenyl)))[dY][d2Nal]NTF[azaGly]L[Api(1-amidino)]F-NH2 (SMILES CC(C)C[C@H](NC(=O)NNC(=O)[C@H](Cc1ccccc1)NC(=O)[C@@H](NC(=O)[C@H](CC(N)=O)NC(=O)[C@@H](Cc1ccc2ccccc2c1)NC(=O)[C@@H](Cc1ccc(O)cc1)NC(=O)[C@@H](CCCCNC(=O)CCCc1ccc(I)cc1)NC(=O)CCCCCNC(=O)CN1CCN(CC(=O)O)CCN(CC(=O)O)CCN(CC(=O)O)CC1)[C@@H](C)O)C(=O)NC1(C(=O)N[C@@H](Cc2ccccc2)C(N)=O)CCN(C(=N)N)CC1) [Compound 310] |  | < 10
[dY][dW]NTF[azaGly]L[X2]W-NH2 (not fully specified (N-terminus); also: N-terminal Lys linked through its epsilon amine to adipoyl, which acylates D-Tyr1) [Compound 117] | < 10 | 
{DOTA-Ahx}-[dY][d2Nal]NTF[azaGly]L[4‑amino‑1‑((4-iodobenzyl)glycyl)piperidine‑4‑carboxylic acid][dW]-NH2 [Compound 371] |  | < 10
{DOTA}-[Ahx][dY][d2Nal]NTF[azaGly]L[Api(1-amidino)]Y-NH2 (SMILES CC(C)C[C@H](NC(=O)NNC(=O)[C@H](Cc1ccccc1)NC(=O)[C@@H](NC(=O)[C@H](CC(N)=O)NC(=O)[C@@H](Cc1ccc2ccccc2c1)NC(=O)[C@@H](Cc1ccc(O)cc1)NC(=O)CCCCCNC(=O)CN1CCN(CC(=O)O)CCN(CC(=O)O)CCN(CC(=O)O)CC1)[C@@H](C)O)C(=O)NC1(C(=O)N[C@@H](Cc2ccc(O)cc2)C(N)=O)CCN(C(=N)N)CC1) [Compound 185] |  | < 10
{DOTA-Ahx}-[dY][d2Nal]NTF[azaGly]L[Api(1-amidino)]F-NH2 (SMILES CC(C)C[C@H](NC(=O)NNC(=O)[C@H](Cc1ccccc1)NC(=O)[C@@H](NC(=O)[C@H](CC(N)=O)NC(=O)[C@@H](Cc1ccc2ccccc2c1)NC(=O)[C@@H](Cc1ccc(O)cc1)NC(=O)CCCCCNC(=O)CN1CCN(CC(=O)O)CCN(CC(=O)O)CCN(CC(=O)O)CC1)[C@@H](C)O)C(=O)NC1(C(=O)N[C@@H](Cc2ccccc2)C(N)=O)CCN(C(=N)N)CC1) [Compound 300] |  | < 10
{DOTA-4Amb-Met-Val-εLys-Adipoyl}-F[azaGly]L[X2]W-NH2 [Compound 132] | < 10 | 
{DOTA}-[Ahx][dY][Bip]NTF[azaGly]L[Api(1-amidino)]W-NH2 (SMILES CC(C)C[C@H](NC(=O)NNC(=O)[C@H](Cc1ccccc1)NC(=O)[C@@H](NC(=O)[C@H](CC(N)=O)NC(=O)[C@H](Cc1ccc(-c2ccccc2)cc1)NC(=O)[C@@H](Cc1ccc(O)cc1)NC(=O)CCCCCNC(=O)CN1CCN(CC(=O)O)CCN(CC(=O)O)CCN(CC(=O)O)CC1)[C@@H](C)O)C(=O)NC1(C(=O)N[C@@H](Cc2c[nH]c3ccccc23)C(N)=O)CCN(C(=N)N)CC1) [Compound 198] |  | < 10
{DOTA}-[Ahx][dY][Bpa]NTF[azaGly]L[Api(1-amidino)]W-NH2 (SMILES CC(C)C[C@H](NC(=O)NNC(=O)[C@H](Cc1ccccc1)NC(=O)[C@@H](NC(=O)[C@H](CC(N)=O)NC(=O)[C@H](Cc1ccc(C(=O)c2ccccc2)cc1)NC(=O)[C@@H](Cc1ccc(O)cc1)NC(=O)CCCCCNC(=O)CN1CCN(CC(=O)O)CCN(CC(=O)O)CCN(CC(=O)O)CC1)[C@@H](C)O)C(=O)NC1(C(=O)N[C@@H](Cc2c[nH]c3ccccc23)C(N)=O)CCN(C(=N)N)CC1) [Compound 183] |  | < 10
{DOTA}-[dY][3‑(9-anthryl)alanine]NTF[azaGly]L[Api(1-amidino)][4Pal]-NH2 [Compound 221] |  | < 10
{DOTA-Ahx}-[dY][dW]NAF[azaGly]L[X2]L-NH2 (SMILES Cc1ccc(CNCC(=O)N2CCC(NC(=O)[C@H](CC(C)C)NC(=O)NNC(=O)[C@H](Cc3ccccc3)NC(=O)[C@H](C)NC(=O)[C@H](CC(N)=O)NC(=O)[C@@H](Cc3c[nH]c4ccccc34)NC(=O)[C@@H](Cc3ccc(O)cc3)NC(=O)CCCCCNC(=O)CN3CCN(CC(=O)O)CCN(CC(=O)O)CCN(CC(=O)O)CC3)(C(=O)N[C@@H](CC(C)C)C(N)=O)CC2)cc1F) [Compound 113] | < 10 | 
{DOTA-Ahx}-[dY][d2Nal]NTF[azaGly]L[Pip][dW]-NH2 [Compound 339] |  | < 10
{DOTA-Ahx}-[dY][d2Nal]NTF[azaGly]L[Api(1-amidino)]W-NH2 [Compound 269] |  | < 10
{DOTA-Ahx}-[dY][dW]NTF[azaGly]L[4‑amino‑1‑((4-methoxybenzyl)glycyl)piperidine‑4‑carboxylic acid]F-NH2 [Compound 140] | < 10 | 
